Laboratory results: patent US9663581

Molecular target: FcγRIIIa on NK cells (human) (UniProt P08637)
Test: cell-based or functional assay

Chain of UniProt P08637 (P08637 17-254): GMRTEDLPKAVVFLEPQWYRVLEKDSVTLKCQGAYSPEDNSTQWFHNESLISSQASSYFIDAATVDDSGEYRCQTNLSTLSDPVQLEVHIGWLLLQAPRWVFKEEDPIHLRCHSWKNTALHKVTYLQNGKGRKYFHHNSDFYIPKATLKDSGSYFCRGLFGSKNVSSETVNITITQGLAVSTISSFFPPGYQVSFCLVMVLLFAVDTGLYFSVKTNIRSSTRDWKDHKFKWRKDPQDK

ADCC EC50 (LDH release, Raji target cells, human PBMC effector cells): 0.046 µg/mL
Substance: wild type rituximab (antibody)
